Source: paper PMC10707181, “Neuronal Scaffold Protein ARMS Interacts with Synaptotagmin-4 C2AB through the Ankyrin Repeat Domain with an Unexpected Mode” (International Journal of Molecular Sciences, 2023)
Blank lines part the entries; values can stand above or below the binder they belong to.

How the values were obtained:
[1] = molecular target: T1, ARMS protein N-terminal region (NT, residues 1–455) (rat, UniProt Q9EQG6 1-455); assay: ITC; ARMS proteins (200 μM) in the syringe, Syt4 proteins (20 μM) in the cell; 25 °C; 50 mM Tris, 100 mM NaCl, 1 mM EDTA, 1 mM DTT, pH 7.8; one-site binding model; conditions: both partners purified
T1 construct: ARMS (Kidins220), rat, UniProt Q9EQG6, residues 1-455: N-terminal region with the entire ankyrin repeat domain; also called ARMS NT; Kidins220 NT; source: E. coli BL21 (DE3), purified (Ni-NTA, size-exclusion chromatography)
T1 sequence (looked up): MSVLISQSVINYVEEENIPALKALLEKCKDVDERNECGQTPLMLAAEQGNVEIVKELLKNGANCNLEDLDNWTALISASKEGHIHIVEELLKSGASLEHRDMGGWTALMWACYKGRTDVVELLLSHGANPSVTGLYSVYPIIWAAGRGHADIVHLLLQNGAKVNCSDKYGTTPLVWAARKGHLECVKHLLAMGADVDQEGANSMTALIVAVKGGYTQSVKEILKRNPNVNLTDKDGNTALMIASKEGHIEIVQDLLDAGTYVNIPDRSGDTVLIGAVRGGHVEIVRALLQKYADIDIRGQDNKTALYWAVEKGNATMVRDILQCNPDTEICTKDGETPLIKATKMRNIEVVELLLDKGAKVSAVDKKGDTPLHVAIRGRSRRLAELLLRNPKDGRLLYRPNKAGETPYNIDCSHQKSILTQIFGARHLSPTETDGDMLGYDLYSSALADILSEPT

[2] = molecular target: T2, ARMS R1-11 K180A (rat, UniProt Q9EQG6 1-365, K180A); assay: as above; conditions: both partners purified
T2 construct: ARMS (Kidins220), rat, UniProt Q9EQG6, residues 1-365 (R1-11) with K180A; also called ARMS K180A; source: E. coli BL21 (DE3), purified (Ni-NTA, size-exclusion chromatography)
T2 sequence (looked up): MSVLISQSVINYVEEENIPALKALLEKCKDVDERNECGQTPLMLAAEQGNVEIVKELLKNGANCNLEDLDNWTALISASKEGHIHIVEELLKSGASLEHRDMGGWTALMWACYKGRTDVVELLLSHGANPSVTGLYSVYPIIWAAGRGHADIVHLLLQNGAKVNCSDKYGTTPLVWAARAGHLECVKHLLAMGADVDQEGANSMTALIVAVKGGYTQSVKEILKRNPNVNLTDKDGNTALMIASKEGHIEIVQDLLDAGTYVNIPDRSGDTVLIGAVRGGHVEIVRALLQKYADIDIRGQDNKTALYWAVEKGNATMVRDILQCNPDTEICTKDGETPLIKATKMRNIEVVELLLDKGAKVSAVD

[3] = molecular target: T3, ARMS ankyrin repeats 1–11 (R1-11, residues 1–365) (rat, UniProt Q9EQG6 1-365); assay: as above; conditions: both partners purified
T3 construct: ARMS (Kidins220), rat, UniProt Q9EQG6, residues 1-365: ankyrin repeats 1-11; also called ARMS R1-11; ARMS R1-11 WT; source: E. coli BL21 (DE3), purified (Ni-NTA, size-exclusion chromatography)
T3 sequence (looked up): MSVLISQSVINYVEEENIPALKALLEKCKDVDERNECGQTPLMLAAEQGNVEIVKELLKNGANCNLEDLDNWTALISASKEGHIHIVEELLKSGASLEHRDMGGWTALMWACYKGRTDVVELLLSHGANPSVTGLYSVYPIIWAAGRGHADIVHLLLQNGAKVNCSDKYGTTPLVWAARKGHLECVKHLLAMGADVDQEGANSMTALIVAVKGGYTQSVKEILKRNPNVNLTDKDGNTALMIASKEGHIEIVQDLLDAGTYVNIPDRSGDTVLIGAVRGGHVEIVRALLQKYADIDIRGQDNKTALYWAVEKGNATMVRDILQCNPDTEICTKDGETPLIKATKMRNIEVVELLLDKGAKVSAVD

[4] = molecular target: T4, ARMS R1-11 K180A (rat, UniProt Q9EQG6 1-365, K180A); assay: ITC
T4 sequence: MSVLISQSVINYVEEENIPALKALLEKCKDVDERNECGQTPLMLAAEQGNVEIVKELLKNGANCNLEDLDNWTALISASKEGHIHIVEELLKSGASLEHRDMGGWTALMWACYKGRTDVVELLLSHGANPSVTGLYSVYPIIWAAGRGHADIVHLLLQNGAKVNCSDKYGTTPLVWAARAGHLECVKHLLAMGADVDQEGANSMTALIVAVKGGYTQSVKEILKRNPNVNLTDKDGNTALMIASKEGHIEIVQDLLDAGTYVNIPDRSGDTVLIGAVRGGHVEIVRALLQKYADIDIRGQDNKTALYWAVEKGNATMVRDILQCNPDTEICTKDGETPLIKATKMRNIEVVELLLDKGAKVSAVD

Kd [1]: ~17 µM
B1: full length of the cytoplasmic region of Syt4 (CD, residues 41–425) (domain or fragment, human, UniProt Q9H2B2-1 41-425, looked up)
chain: KSSKSNKTPPYKFVHVLKGVDIYPENLNSKKKFGADDKNEVKNKPAVPKNSLHLDLEKRDLNGNFPKTNLKPGSPSDLENATPKLFLEGEKESVSPESLKSSTSLTSEEKQEKLGTLFFSLEYNFERKAFVVNIKEARGLPAMDEQSMTSDPYIKMTILPEKKHKVKTRVLRKTLDPAFDETFTFYGIPYTQIQELALHFTILSFDRFSRDDIIGEVLIPLSGIELSEGKMLMNREIIKRNVRKSSGRGELLISLCYQSTTNTLTVVVLKARHLPKSDVSGLSDPYVKVNLYHAKKRISKKKTHVKKCTPNAVFNELFVFDIPCEGLEDISVEFLVLDSERGSRNEVIGQLVLGAAAEGTGGEHWKEICDYPRRQIAKWHVLCDG
notes: also called Synaptotagmin-4 CD; source: E. coli BL21 (DE3), purified (Ni-NTA, size-exclusion chromatography)

binding result [3]: binds
B3: Syt4 132–425 K284A (domain or fragment, human, UniProt Q9H2B2-1 132-425, looked up)
chain: ESVSPESLKSSTSLTSEEKQEKLGTLFFSLEYNFERKAFVVNIKEARGLPAMDEQSMTSDPYIKMTILPEKKHKVKTRVLRKTLDPAFDETFTFYGIPYTQIQELALHFTILSFDRFSRDDIIGEVLIPLSGIELSEGKMLMNREIIKRNVRASSGRGELLISLCYQSTTNTLTVVVLKARHLPKSDVSGLSDPYVKVNLYHAKKRISKKKTHVKKCTPNAVFNELFVFDIPCEGLEDISVEFLVLDSERGSRNEVIGQLVLGAAAEGTGGEHWKEICDYPRRQIAKWHVLCDG
notes: also called Syt4 K284A variant; source: E. coli BL21 (DE3), purified (Ni-NTA, size-exclusion chromatography)

binding result [3]: binds
B4: Syt4 132–425 Q186A (domain or fragment, human, UniProt Q9H2B2-1 132-425, looked up)
chain: ESVSPESLKSSTSLTSEEKQEKLGTLFFSLEYNFERKAFVVNIKEARGLPAMDEASMTSDPYIKMTILPEKKHKVKTRVLRKTLDPAFDETFTFYGIPYTQIQELALHFTILSFDRFSRDDIIGEVLIPLSGIELSEGKMLMNREIIKRNVRKSSGRGELLISLCYQSTTNTLTVVVLKARHLPKSDVSGLSDPYVKVNLYHAKKRISKKKTHVKKCTPNAVFNELFVFDIPCEGLEDISVEFLVLDSERGSRNEVIGQLVLGAAAEGTGGEHWKEICDYPRRQIAKWHVLCDG
notes: also called Syt4 Q186A; source: E. coli BL21 (DE3), purified (Ni-NTA, size-exclusion chromatography)

The remaining lines, values behind:

B2: Syt4 132–425 (domain or fragment, human, UniProt Q9H2B2-1 132-425, looked up)
chain: ESVSPESLKSSTSLTSEEKQEKLGTLFFSLEYNFERKAFVVNIKEARGLPAMDEQSMTSDPYIKMTILPEKKHKVKTRVLRKTLDPAFDETFTFYGIPYTQIQELALHFTILSFDRFSRDDIIGEVLIPLSGIELSEGKMLMNREIIKRNVRKSSGRGELLISLCYQSTTNTLTVVVLKARHLPKSDVSGLSDPYVKVNLYHAKKRISKKKTHVKKCTPNAVFNELFVFDIPCEGLEDISVEFLVLDSERGSRNEVIGQLVLGAAAEGTGGEHWKEICDYPRRQIAKWHVLCDG
notes: source: E. coli BL21 (DE3), purified (Ni-NTA, size-exclusion chromatography)
binding result [2]: binds
binding result [3]: binds
Kd [4]: 11 µM

B5: Syt4 C2AB (residues 151–425) (domain or fragment, human, UniProt Q9H2B2-1 151-425, looked up)
chain: QEKLGTLFFSLEYNFERKAFVVNIKEARGLPAMDEQSMTSDPYIKMTILPEKKHKVKTRVLRKTLDPAFDETFTFYGIPYTQIQELALHFTILSFDRFSRDDIIGEVLIPLSGIELSEGKMLMNREIIKRNVRKSSGRGELLISLCYQSTTNTLTVVVLKARHLPKSDVSGLSDPYVKVNLYHAKKRISKKKTHVKKCTPNAVFNELFVFDIPCEGLEDISVEFLVLDSERGSRNEVIGQLVLGAAAEGTGGEHWKEICDYPRRQIAKWHVLCDG
notes: also called Syt4 CAB; source: E. coli BL21 (DE3), purified (Ni-NTA, size-exclusion chromatography)
Kd [3]: ~7 µM
